Results reported in IntAct's records for PubMed 9697699.

B1: Serine hydrolase RBBP9 (Rattus norvegicus (Rat)), O88350 (parent)
chain: MASPTKAVIVPGNGGGDVATHGWYGWVRKGLEQIPGFQCLAKNMPDPITARESIWLPFMETELHCDEKTIIIGHSSGAIAAMRYAETHQVYALILVSAYTSDLGDENERASGYFSRPWQWEKIKANCPHIIQFGSTDDPFLPWKEQQEVADRLDAKLYKFTDRGHFQNTEFHELIRVVKSMLTPAL
partner: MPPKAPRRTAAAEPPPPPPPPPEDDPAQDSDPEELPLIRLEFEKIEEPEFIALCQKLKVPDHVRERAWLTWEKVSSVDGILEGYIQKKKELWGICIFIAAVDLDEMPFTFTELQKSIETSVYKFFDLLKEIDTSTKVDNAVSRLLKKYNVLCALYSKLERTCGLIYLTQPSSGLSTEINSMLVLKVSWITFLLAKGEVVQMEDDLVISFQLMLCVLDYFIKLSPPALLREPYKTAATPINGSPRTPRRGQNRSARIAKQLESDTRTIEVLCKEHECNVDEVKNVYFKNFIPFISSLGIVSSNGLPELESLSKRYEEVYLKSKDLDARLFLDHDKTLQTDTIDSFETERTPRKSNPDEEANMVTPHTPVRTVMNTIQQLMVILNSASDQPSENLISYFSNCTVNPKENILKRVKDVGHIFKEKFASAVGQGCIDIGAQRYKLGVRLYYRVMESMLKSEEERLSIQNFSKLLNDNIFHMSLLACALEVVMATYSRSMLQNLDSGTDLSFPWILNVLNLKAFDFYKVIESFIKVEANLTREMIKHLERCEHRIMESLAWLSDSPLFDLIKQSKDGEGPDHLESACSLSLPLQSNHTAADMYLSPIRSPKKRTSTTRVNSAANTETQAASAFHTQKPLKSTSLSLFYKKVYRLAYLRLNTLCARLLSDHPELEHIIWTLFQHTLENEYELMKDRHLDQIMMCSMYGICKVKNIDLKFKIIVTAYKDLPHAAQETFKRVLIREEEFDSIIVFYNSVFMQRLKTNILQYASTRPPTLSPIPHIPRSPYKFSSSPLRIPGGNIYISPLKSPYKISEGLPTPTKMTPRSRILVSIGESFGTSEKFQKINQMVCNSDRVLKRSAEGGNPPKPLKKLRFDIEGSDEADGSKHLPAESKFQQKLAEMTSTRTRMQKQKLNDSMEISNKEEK

Variants of: B1
Details: with rb_rat Rb1, P33568

Row | effect of a mutation on the interaction | Variant
1 | disrupting interaction | L63E
